Data on 6 substances can be found in publication PMC4748814.

Changes are numbered by the printed parent chain.

Data set [1] concerns PNPase S437-9A (active site mutant). In words: BLI. The following applies: EMSA: 20 mM Tris pH 7.5, 100 mM NaCl, 1 mM MgCl2, 1 mM DTT, 30 C, 0.2 uM RNA; BLI: same buffer + 1 mg/mL acetylated BSA; ITC: 20 mM Tris-HCl pH 7.5, 1 mM ….
In data set [2] the test system is PNPase. In words: BLI. The following applies: EMSA: 20 mM Tris pH 7.5, 100 mM NaCl, 1 mM MgCl2, 1 mM DTT, 30 C, 0.2 uM RNA; BLI: same buffer + 1 mg/mL acetylated BSA; ITC: 20 mM Tris-HCl pH 7.5, 1 mM ….
The target in data set [3] is T1, PNPase (UniProt P05055).
T1 sequence: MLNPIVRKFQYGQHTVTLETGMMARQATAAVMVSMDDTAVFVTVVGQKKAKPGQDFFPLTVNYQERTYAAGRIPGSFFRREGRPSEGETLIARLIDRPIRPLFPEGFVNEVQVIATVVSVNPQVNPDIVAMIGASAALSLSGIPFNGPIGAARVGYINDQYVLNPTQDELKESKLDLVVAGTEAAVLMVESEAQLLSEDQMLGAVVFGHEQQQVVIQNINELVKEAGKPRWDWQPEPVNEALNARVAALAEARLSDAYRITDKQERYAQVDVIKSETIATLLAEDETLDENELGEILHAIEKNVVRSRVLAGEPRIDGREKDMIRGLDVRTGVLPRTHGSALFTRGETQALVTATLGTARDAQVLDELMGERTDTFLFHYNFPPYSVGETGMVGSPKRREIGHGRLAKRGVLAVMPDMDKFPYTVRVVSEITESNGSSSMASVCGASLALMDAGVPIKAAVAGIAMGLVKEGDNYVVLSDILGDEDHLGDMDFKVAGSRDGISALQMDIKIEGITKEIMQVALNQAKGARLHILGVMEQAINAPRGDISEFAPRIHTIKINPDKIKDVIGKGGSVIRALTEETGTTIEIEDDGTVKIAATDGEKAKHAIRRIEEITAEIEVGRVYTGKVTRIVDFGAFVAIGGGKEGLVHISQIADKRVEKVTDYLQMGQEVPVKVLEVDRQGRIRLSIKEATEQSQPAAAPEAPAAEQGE
Kind of data set: ITC. To be noted: EMSA: 20 mM Tris pH 7.5, 100 mM NaCl, 1 mM MgCl2, 1 mM DTT, 30 C, 0.2 uM RNA; BLI: same buffer + 1 mg/mL acetylated BSA; ITC: 20 mM Tris-HCl pH 7.5, 1 mM ….

Data set [4] deals with T2, PNPase S437-9A (active site mutant) S437A;S438A;S439A (UniProt P05055).
T2 sequence: T1 sequence with S437A, S438A, S439A
In words: BLI. To be noted: EMSA: 20 mM Tris pH 7.5, 100 mM NaCl, 1 mM MgCl2, 1 mM DTT, 30 C, 0.2 uM RNA; BLI: same buffer + 1 mg/mL acetylated BSA; ITC: 20 mM Tris-HCl pH 7.5, 1 mM ….

Data set [5] addresses T1, PNPase. In words: BLI. The following applies: EMSA: 20 mM Tris pH 7.5, 100 mM NaCl, 1 mM MgCl2, 1 mM DTT, 30 C, 0.2 uM RNA; BLI: same buffer + 1 mg/mL acetylated BSA; ITC: 20 mM Tris-HCl pH 7.5, 1 mM ….
Data set [6] addresses T2, PNPase S437-9A (active site mutant) S437A;S438A;S439A. In words: EMSA. To be noted: EMSA: 20 mM Tris pH 7.5, 100 mM NaCl, 1 mM MgCl2, 1 mM DTT, 30 C, 0.2 uM RNA; BLI: same buffer + 1 mg/mL acetylated BSA; ITC: 20 mM Tris-HCl pH 7.5, 1 mM ….
The target of the next data set is T3, PNPase delta-KH delta-S1 (UniProt P05055).
T3 sequence: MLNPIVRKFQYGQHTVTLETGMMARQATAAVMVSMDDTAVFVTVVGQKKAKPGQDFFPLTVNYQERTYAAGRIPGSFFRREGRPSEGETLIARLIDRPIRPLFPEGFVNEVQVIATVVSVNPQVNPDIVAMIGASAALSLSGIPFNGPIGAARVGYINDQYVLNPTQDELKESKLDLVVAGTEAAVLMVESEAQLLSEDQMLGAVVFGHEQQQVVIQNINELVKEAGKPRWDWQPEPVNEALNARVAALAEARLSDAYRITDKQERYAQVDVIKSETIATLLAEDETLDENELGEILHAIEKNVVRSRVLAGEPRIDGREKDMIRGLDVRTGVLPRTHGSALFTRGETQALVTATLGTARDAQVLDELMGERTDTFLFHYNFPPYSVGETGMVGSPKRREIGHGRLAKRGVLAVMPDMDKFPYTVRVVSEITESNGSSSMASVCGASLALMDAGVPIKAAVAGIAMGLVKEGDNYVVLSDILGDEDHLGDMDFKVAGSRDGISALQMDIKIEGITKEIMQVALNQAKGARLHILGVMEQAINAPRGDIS
Kind of data set: EMSA. The following applies: EMSA: 20 mM Tris pH 7.5, 100 mM NaCl, 1 mM MgCl2, 1 mM DTT, 30 C, 0.2 uM RNA; BLI: same buffer + 1 mg/mL acetylated BSA; ITC: 20 mM Tris-HCl pH 7.5, 1 mM ….

In another data set the target is Hfq (UniProt P0A6X3). In words: EMSA. The following applies: EMSA: 20 mM Tris pH 7.5, 100 mM NaCl, 1 mM MgCl2, 1 mM DTT, 30 C, 0.2 uM RNA; BLI: same buffer + 1 mg/mL acetylated BSA; ITC: 20 mM Tris-HCl pH 7.5, 1 mM ….
The target of data set [7] is PNPase;Hfq (Escherichia coli K-12 MG1655 derivative?;Escherichia coli?) (UniProt P05055+P0A6X3). Kind of data set: EMSA. The following applies: EMSA: 20 mM Tris pH 7.5, 100 mM NaCl, 1 mM MgCl2, 1 mM DTT, 30 C, 0.2 uM RNA; BLI: same buffer + 1 mg/mL acetylated BSA; ITC: 20 mM Tris-HCl pH 7.5, 1 mM ….
Another data set has as its target T4, PNPase delta-S1 (UniProt P05055).
T4 sequence: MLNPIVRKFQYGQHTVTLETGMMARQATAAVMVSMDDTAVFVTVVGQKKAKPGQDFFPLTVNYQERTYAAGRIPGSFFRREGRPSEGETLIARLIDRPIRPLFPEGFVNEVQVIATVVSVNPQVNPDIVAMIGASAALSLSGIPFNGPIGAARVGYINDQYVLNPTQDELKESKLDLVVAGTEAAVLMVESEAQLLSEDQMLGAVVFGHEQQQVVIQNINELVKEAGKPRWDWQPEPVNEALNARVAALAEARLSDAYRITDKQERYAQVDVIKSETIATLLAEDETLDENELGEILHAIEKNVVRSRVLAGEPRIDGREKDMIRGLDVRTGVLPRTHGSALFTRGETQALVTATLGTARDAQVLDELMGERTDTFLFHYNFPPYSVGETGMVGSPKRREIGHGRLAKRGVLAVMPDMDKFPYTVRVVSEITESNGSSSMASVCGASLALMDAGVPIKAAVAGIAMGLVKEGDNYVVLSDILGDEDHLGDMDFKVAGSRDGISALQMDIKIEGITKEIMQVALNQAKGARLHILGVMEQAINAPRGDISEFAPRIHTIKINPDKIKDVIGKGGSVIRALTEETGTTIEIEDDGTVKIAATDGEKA
Kind of data set: EMSA. The following applies: EMSA: 20 mM Tris pH 7.5, 100 mM NaCl, 1 mM MgCl2, 1 mM DTT, 30 C, 0.2 uM RNA; BLI: same buffer + 1 mg/mL acetylated BSA; ITC: 20 mM Tris-HCl pH 7.5, 1 mM ….

Data set [8] deals with T1, PNPase. In words: EMSA. To be noted: EMSA: 20 mM Tris pH 7.5, 100 mM NaCl, 1 mM MgCl2, 1 mM DTT, 30 C, 0.2 uM RNA; BLI: same buffer + 1 mg/mL acetylated BSA; ITC: 20 mM Tris-HCl pH 7.5, 1 mM ….
Data set [9] deals with PNPase. Kind of data set: ITC. To be noted: no phosphate, 1 mM Mg2+, 30 C, N = 1.01, EMSA: 20 mM Tris pH 7.5, 100 mM NaCl, 1 mM MgCl2, 1 mM DTT, 0.2 uM RNA, BLI: same buffer + 1 mg/mL acetylated …, ITC: 20 mM Tris-HCl pH 7.5, 1 mM MgCl2.

PNPase;Hfq (Escherichia coli K-12 MG1655 derivative?;Escherichia coli?), sequence (P0A6X3 whole entry, one chain of several): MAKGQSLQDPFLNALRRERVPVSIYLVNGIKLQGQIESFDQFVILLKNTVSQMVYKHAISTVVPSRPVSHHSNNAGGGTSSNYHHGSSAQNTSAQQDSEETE
Hfq, sequence (P0A6X3 whole entry): as the sequence (P0A6X3 whole entry, one chain of several) above

On to 5'-biotin RyhB (9U), for which the Kd was found to be 149 nM in data set [1] and 15.8 nM with PNPase [2].

As for “GCGAUCAGGAAGACCCUCGCGGAGAACCUGAAAGCACGACAUUGCUCACAUUGCUUCCAGUAUUACUUAGCCAGCCGGGUGCUGGCUUUU [RyhB (4U)]”, the dissociation constant Kd with PNPase [3] turned out to be 85 nM.

With “GCGAUCAGGAAGACCCUCGCGGAGAACCUGAAAGCACGACAUUGCUCACAUUGCUUCCAGUAUUACUUAGCCAGCCGGGUGCUGGCUUUUUUUUU [5'-biotin RyhB (9U)]”, the Kd in [4] was determined as 149 nM; in the data set with PNPase [5] it was 15.8 nM.

As for “GCGAUCAGGAAGACCCUCGCGGAGAACCUGAAAGCACGACAUUGCUCACAUUGCUUCCAGUAUUACUUAGCCAGCCGGGUGCUGGCUUUUUUUUU [RyhB (9U)]”, the binding result in data set [6] is reported as “binds more weakly”; with PNPase delta-KH delta-S1, “binds more weakly”; with Hfq, “binds”; in data set [7], “binds”; with PNPase delta-S1, “binds more weakly”; with PNPase [8], “binds”.

Regarding “GCUGAAAAACAUAACCCAUAAAAUGCUAGCUGUACCAGGAACCACCUCCUUAGCCUGUGUAAUCUCCCUUACACGGGCUUAUUUUUU [CyaR]”, the binding entry in data set [6] is reported as “binds more weakly”; with Hfq, “binds”; in [7] it was “binds”; with PNPase delta-S1, “binds more weakly”; with PNPase [8] it was “binds”.

Consider RyhB (4U), for which the dissociation constant (Kd) with PNPase [9] worked out at 85 nM.
